Laboratory results taken from patent publication US20230174627A1 (published 2023).

T1: recombinant EBOV GP (Ebola virus (EBOV), UniProt Q05320 33-650)
T1 sequence: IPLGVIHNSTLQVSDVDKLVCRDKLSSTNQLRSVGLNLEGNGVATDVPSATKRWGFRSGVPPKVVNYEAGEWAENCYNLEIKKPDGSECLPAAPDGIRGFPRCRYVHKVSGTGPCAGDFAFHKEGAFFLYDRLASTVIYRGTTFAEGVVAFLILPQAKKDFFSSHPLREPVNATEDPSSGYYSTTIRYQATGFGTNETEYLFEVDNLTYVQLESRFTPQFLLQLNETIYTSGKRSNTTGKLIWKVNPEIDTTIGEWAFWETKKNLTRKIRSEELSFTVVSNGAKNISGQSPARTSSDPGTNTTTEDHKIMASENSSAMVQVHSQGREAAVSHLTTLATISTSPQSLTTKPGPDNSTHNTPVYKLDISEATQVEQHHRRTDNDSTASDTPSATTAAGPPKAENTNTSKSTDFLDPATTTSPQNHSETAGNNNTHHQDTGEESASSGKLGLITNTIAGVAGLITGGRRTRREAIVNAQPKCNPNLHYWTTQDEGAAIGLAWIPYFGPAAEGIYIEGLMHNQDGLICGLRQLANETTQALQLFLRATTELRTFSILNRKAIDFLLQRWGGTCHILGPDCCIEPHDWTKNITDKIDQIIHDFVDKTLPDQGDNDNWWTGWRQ

B1: 16F6 human IgG1 chimeric mAb (antibody, V domains shown)
VH: EVQLVESGGGLVTPGGSLKLSCAASGFAFNYYDMFWVRQNTEKRLEWVAYINSGGGNTYYPDTVKGRFTISRDNAKKTLFLQMSSLRSEDTAMYYCARQLYGNSFFDYWGQGTSLTV
VL: DIVMTQSHKFMSTSVGDRVTITCKASQDVTTAVAWYQQKPGHSPKLLIYWASTRHTGVPDRFTGSGSGTDFTLTLNSVQAEDLALYYCQQHYSTPLTFGAGTKLEL
B2: 17F6 human IgG1 chimeric mAb (antibody, V domains shown)
VH: DVQLQESGPGLVKPSQTVSLTCTVTGISITAGNYRWSWIRQFPGNKLEWIGYIYYSGTIAYNPSLTSRTAITRDSSKNQFFLEMNSLTAEDTATYYCARDRGWLLLDYWGQGTTLTVSS
VL: DVLMTQTPLSLPVSLGDQASISCRSSQTIVHSNGNTYLEWYLQKPGQSPKLLIYKVSSRFSGVPDRFSGSGSGTDFTLKISRVEAEDLGVYYCFQGSHFPYTFGGGTKLEIKR
B3: X10B1 human IgG1 chimeric mAb (antibody, V domains shown)
VH: EVQLLESGPSLVKPSETLTLTCAVSGASISGDYLNWIRQPPGKGLEWIGGIFGSGGSTDYSPSFKSRVTISTDTSKNQFSLKLTSMTTADTAVYFCATALRGARFDAFDFWGQGRRV
VL: DIELTQSPATLSLSPGERATLSCRASQSVSTYLAWYQKKPGQAPRLLFYGASNRATGIPDRFSGRRSGTDFTLTISSLEPEDVGVYYCQQYNKWNSFGQGTKVEIK
B4: X10F3 human IgG1 chimeric mAb (antibody, V domains shown)
VH: QVQLEQSGAEVKKPGTSVKVSCKASGFFTFGSDAISWVRQAPGQGLEWMGVIIPVVGARTYAEKFQGRITITADTSTSTVFMDLSSLRSDDTAVYYCAREGARAATGHYKSMDIWGRGRTLV
VL: ELQMTQSPSSLSASVGDRVTITCRASQDIGPFLNWYQHKPGKPPKLLIYDVSNLQDGVPSTFSGSGSGTDFTLTISNLQPEDFATYYCLHYANYPRTFGPGTKVEIK
B5: X10H2 human IgG1 chimeric mAb (antibody, V domains shown)
VH: QVQLEQSGAEVKKPGTSVKVSCKASGFTFGSDAISWVRQAPGQGLEWMGVIIPVVGARTYAEKFQGRITITADTSTSTVFMDLSSIRSDDTAVYYCAREGARAATGHYKSMDIWGRGTLV
VL: EIELTQSPSSLYASVGDKVTITCRASQGISTYLNWYQQKPGKAPKLLIYAASSLQSGVPSRFSGSGSGTEFTLTISSLQPEDFAAVYCQQYNSYPRTFGQGTKVEIK
B6: X10B6 human IgG1 chimeric mAb (antibody, V domains shown)
VH: QVQLEQSGAEVKKPGTSVKVSCKASGFFTFGSDAISWVRQAPGQGLEWMGVIIPVVGARTYAEKFQGRITITADTSTSTVFMDLSSLRSDDTAVYYCAREGARAATGHYKSMDIWGRGRTLV
VL: ELLMTQSPSSLSASVGDRVTITCRASQGISTYLSWFQQKPGKPPKLLIYLTSSLEDGVPSRFSGAGSGTEFTLTISNLQPEDFASYYCLQYQSYPRTFGPGTKVEIK

biological target: T1, recombinant EBOV GP; test: ELISA on plates coated with recombinant EBOV GP

Row | Binder | binding result
1 | B1 | no binding
2 | B2 | no binding
3 | B3 | no binding
4 | B4 | no binding
5 | B5 | no binding
6 | B6 | no binding
